Source: patent US20220378949A1, “NEUROTROPHIN RECEPTOR BINDING CONJUGATE COMPOSITIONS, METHODS OF USE AND METHODS OF MAKING THEREOF” (priority 2019, published 2022)
Each block holds one molecule with its values, some of them ahead of it.

Key:
[1] = Stability of rhNGF in plasma; type: in vitro ADME; details: 37° C.
Excerpt: As an example of an intracellularly active small molecule compound (SMC), the glucocorticoid fluocinolone acetonide (FA) was conjugated using a heterobifunctional linker to rhNGF and rhBDNF, both of which constructs exerted analgesic (anti-inflammatory) activity in vivo. Dorsal Root Ganglia (DRG) in diseases of the peripheral nervous system (PNS) play a fundamental role in chronic pain generally. NGF and BDNF localize due to their selectivity for distinct populations of peripheral neurons by binding to TrkA and TrkB expressed largely in nociceptors and proprioceptors, respectively. In treating forms of pain in which the DRG are involved, either NGF and/or BDNF should deliver intracellularly active FA by axonal transport to subpopulations of sensory neuron cell bodies in DRG and via their central synaptic terminals, into the dorsal horn of the spinal cord. Since TrkB is highly expressed in the neurofilament-1-expressing subpopulation of low-threshold mechanosensory neurons in the DRG, peripherally injected BDNF should deliver FA to the DRG. In treating pain, FA may alter neuronal excitability to be released or diffuse, acting on nearby inflammatory cells e.g. microglia, astrocytes, or satellite glia. rhNGF is stable in plasma for up to 4 days at 37° C.

[2] = administered sub-cutaneously (SQ); cited from earlier work
[3] = test system: superior cervical ganglia (SCG) neurons; assay: Retrograde axonal transport of 800-rhNGF in Xona microfluidic chambers, LI-COR Odyssey imaging; type: cell-based, rat; details: 30 ng/mL at distal axons, 48 hours
Excerpt: (§1) Increasing conjugation leads to decreased protein conjugate solubility. A construct where the active agent has a greater molecular weight and less hydrophilic Dyomics DY-800 Near InfraRed (NIR) dye was attached directly to recombinant human NGF (rhNGF) (FIG. 2). In subsequent studies, we purified DAR sub-species using a (Waters column) reverse phase HPLC (RP-HPLC). […] Cultures were maintained until the axons extended through the channels in the microfluidic chambers to the side without cells plated. FIG. 2B depicts 800-rhNGF, 30 ng/mL was added to the wells where the terminal (distal) axons had extended. 48 hours after addition of 800-rhNGF to distal ends in left chambers, chambers were imaged on a LI-COR Odyssey scanner. […] FIGS. 2C and 2D depict brightfield images of wells containing cell bodies, showing improved visualization of cell clumps for comparison to images containing 800 NIR cell bodies. Neuronal Survival Confirms TrkB Binding Activity is Intact after Synthetic Manipulation.

[4] = test system: superior cervical ganglia (SCG) neurons; assay: Neuronal survival assay in primary superior cervical ganglia neurons (compartmented cultures / microfluidic devices); type: cell-based, rat; details: FIG. 4 and FIG. 1C
Description: In vitro systems that use primary neurons express Trk receptors on distal ends were used so that both survival and Trk binding activity may be assessed following synthetic manipulation in producing conjugates.
Confirm Trk receptor binding. […] Receptor binding activity where up to 100× unmodified mNGF is co-administered with the Trk binding agent was determined. […] FIG. 1C: Neurons in compartmented cultures were given approximately 10 ng/mL fNGF (as determined by neuronal survival bioassay), or 10 ng/mL fNGF+100× excess unlabelled NFG (1000 ng/mL) in the distal axon compartments. 24 hours later fluorescence images of the cell bodies were obtained (FIG. 1C). […] Survival. […] SGC neurons were harvested from E-21 Sprague Dawley rat pups.
DAR analytics were calculated using Reverse Phase High Performance Liquid Chromatography (RP-HPLC) and/or mass spectroscopy (MS). […] (FIG. 5)

TrkA receptors = target: T1, TrkA receptors (Rattus norvegicus, UniProt P35739); assay: Uptake and retrograde transport of fluorescent NGF in compartmented cultures of SCG neurons, competition with unlabelled NGF; type: cell-based; details: for Uptake of fluorescent NGF at distal ends of neurons (TrkA-mediated endocytosis): distal axon compartments, SCG neurons
T1 construct: In vitro systems that use primary neurons express Trk receptors on distal ends were used; endogenous in cells
T1 sequence (P35739 33-799): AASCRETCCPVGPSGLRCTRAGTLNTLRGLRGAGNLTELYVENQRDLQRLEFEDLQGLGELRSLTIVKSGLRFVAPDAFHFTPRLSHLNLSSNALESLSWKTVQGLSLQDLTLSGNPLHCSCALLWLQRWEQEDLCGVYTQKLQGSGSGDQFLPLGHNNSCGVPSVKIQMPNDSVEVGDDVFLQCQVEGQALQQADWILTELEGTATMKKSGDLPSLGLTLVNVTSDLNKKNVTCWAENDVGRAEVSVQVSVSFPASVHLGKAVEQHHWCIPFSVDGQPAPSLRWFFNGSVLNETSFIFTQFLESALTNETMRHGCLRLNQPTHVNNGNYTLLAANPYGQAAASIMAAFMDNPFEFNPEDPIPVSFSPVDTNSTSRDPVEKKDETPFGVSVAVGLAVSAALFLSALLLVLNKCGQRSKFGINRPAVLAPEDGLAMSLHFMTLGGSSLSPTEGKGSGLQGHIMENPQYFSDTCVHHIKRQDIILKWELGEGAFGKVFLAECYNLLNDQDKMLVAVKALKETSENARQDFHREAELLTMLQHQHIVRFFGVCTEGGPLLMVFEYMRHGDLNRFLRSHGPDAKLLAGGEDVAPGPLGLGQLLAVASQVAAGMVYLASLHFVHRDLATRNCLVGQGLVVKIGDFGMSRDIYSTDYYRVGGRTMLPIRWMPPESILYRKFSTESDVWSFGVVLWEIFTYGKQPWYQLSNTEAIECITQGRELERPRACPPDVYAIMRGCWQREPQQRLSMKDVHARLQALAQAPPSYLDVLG
Description: Confirm Trk receptor binding. […] Receptor binding activity where up to 100× unmodified mNGF is co-administered with the Trk binding agent was determined. 488-mNGF (FIG. 1A) is shown in cell bodies, after binding to TrkA, endocytosis and transport to the central chamber of the in vitro system. In FIG. 1B, TrkA was confirmed here by adding 1000 ng/ml unmodified mNGF to compete with 100 ng/ml 488-mNGF for the same TrkA receptors. FIG. 1C: Neurons in compartmented cultures were given approximately 10 ng/mL fNGF (as determined by neuronal survival bioassay), or 10 ng/mL fNGF+100× excess unlabelled NFG (1000 ng/mL) in the distal axon compartments. 24 hours later fluorescence images of the cell bodies were obtained (FIG. 1C). […] Alexa Fluor requirement for DAR<4 per mouse NGF monomer. Fluorescent dye Alexa Fluor 488, which due to its size and hydrophobicity is attached to NGF without using a spacer of any length binds to TrkA, is endocytosed after binding, and is transported retrogradely to the neuronal cell body. In FIG. 4, we show in vitro results for a “mixed DAR” 800-rhNGF of 1.64 which is expressed as an average of 1-4 dye molecules per monomer using standard analytical methods mass spectroscopy (MS) or high performance liquid chromatography (HPLC), in each case where the NT involved is a dimer. […] Survival. […] SGC neurons were harvested from E-21 Sprague Dawley rat pups.

[5] = test system: Retinal Ganglion Cells (RGCs); assay: Neuronal survival of primary Retinal Ganglion Cells with labeled rhBDNF (TrkB binding intact); type: cell-based, rat
Description: Labeled BDNF test articles, either 800-rhBDNF or FA-rhBDNF, were also assessed to as to whether the compositions would sustain neuronal survival by plating conjugates in Retinal Ganglion Cells (RGCs). RGCs were isolated from P6 rats by sequential immune-panning. Retinas are isolated and enzymatically digested by papain followed by mechanical dissociation into a single-cell suspension. Cells are negatively panned to remove macrophages and other nonspecifically adhering cells and then positively panned for RGCs using the Thy1.1 T11D7 hybridoma supernatant.
as §1
High Performance Liquid Chromatography and mass spectrometry was used to quantify the number of dye molecules attached or crosslinked to rhBDNF (i.e., the ratio of fluorescent dye in the 800 region to rhBDNF).

[6] = average ratio of about 3.1 per monomer

Molecule: rhNGF: recombinant human NGF (nerve growth factor)
Stability in plasma (time stable) [1]: up to 4 days
Maximum Tolerated Dose (MTD) [2]: 1 µg/kg

Molecule: 800-rhNGF: Dyomics DY-800 Near InfraRed (NIR) dye attached directly to recombinant human NGF (rhNGF)
Retrograde transport to cell bodies (800 NIR labelled cell bodies visualized) [3]: retrogradedly transported

Accumulation of fluorescence in the cell bodies with 100× excess unlabelled NGF (TrkA receptors; 10 ng/mL fNGF + 1000 ng/mL unlabelled NGF in distal axon compartments, 24 hours): effectively inhibited
Uptake of fluorescent NGF at distal ends of neurons (TrkA-mediated endocytosis) (TrkA receptors): endocytosed at the distal ends
Uptake of fluorescent NGF at distal ends of neurons (TrkA-mediated endocytosis) (TrkA receptors; listed as fNGF): specific, TrkA receptor-mediated process
B1: 488-mNGF: fluorescent dye Alexa Fluor 488 attached to murine NGF (conjugate, UniProt P01139 122-241, looked up)
Beta-nerve growth factor: SSTHPVFHMGEFSVCDSVSVWVGDKTTATDIKGKEVTVLAEVNINNSVFRQYFFETKCRASNPVESGCRGIDSKHWNSYCTTTHTFVKALTTDEKQAAWRFIRIDTACVCVLSRKATRRG
modifications: Alexa Fluor 488 dye
notes: fluorescent dye Alexa Fluor 488 attached to murine NGF
Survival of neurons [4]: sustained the survival of neurons

B2: 800-rhBDNF: NIR dye in the 800 region directly attached to rhBDNF (conjugate, UniProt P23560 19-247, looked up)
Neurotrophic factor BDNF …: APMKEANIRGQGGLAYPGVRTHGTLESVNGPKAGSRGLTSLADTFEHVIEELLDEDQKVRPNEENNKDADLYTSRVMLSSQVPLEPPLLFLLEEYKNYLDAANMSMRVRRHSDPARRGELSVCDSISEWVTAADKKTAVDMSGGTVTVLEKVPVSKGQLKQYFYETKCNPMGYTKEGCRGIDKRHWNSQCRTTQSYVRALTMDSKKRIGWRFIRIDTSCVCTLTIKRGR
modifications: NIR 800 dye
notes: NIR dye in the 800 region directly attached to rhBDNF
Neuronal survival in primary neurons of Retinal Ganglion Cells ([5]; FIG. 3): sustained neuronal survival
Intraneuronal uptake [5, 6]: intraneuronal uptake
Trk binding [5, 6]: Trk binding
